Consider two molecules from US20150241442A1.

The target of the assay is Leukocyte Function Antigen-1 (LFA-1), on cells (Jurkat T cells, human T cells, PBMC) (human) (UniProt P20701). The experiment in a line: cell-based or functional assay.
Sequence of Leukocyte Function Antigen-1 (LFA-1), on cells (Jurkat T cells, human T cells, PBMC) (human) (P20701 26-1170, chain 1 of 2): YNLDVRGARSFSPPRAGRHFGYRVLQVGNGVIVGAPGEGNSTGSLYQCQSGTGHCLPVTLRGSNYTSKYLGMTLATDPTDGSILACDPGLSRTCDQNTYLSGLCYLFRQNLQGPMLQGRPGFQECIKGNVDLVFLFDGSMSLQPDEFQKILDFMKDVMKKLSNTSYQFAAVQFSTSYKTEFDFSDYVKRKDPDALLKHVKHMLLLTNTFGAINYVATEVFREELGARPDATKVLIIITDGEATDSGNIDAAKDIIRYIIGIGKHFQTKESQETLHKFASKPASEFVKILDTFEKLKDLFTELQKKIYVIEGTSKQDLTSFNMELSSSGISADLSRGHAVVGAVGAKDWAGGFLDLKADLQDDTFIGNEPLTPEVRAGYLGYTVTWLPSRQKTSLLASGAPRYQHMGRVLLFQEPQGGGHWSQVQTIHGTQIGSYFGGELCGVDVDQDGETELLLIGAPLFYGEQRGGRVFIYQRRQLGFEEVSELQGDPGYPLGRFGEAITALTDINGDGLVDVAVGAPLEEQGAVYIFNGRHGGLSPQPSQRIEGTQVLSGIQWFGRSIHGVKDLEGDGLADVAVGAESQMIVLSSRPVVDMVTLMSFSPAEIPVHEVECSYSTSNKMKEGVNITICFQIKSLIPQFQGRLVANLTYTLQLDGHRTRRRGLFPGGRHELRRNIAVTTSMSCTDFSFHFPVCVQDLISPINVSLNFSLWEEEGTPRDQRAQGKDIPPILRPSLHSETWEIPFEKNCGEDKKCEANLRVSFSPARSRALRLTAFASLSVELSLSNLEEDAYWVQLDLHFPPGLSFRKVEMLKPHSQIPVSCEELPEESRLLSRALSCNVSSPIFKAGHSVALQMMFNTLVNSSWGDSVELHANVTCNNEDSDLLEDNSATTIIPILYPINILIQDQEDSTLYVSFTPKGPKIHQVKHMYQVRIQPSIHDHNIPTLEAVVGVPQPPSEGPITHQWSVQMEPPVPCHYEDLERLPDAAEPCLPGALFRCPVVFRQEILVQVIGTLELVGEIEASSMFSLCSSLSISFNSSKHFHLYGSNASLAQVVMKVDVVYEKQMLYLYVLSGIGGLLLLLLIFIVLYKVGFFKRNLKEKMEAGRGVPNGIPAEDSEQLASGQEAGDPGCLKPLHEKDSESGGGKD
Sequence of Leukocyte Function Antigen-1 (LFA-1), on cells (Jurkat T cells, human T cells, PBMC) (human) (P05107 23-769, chain 2 of 2, further chain): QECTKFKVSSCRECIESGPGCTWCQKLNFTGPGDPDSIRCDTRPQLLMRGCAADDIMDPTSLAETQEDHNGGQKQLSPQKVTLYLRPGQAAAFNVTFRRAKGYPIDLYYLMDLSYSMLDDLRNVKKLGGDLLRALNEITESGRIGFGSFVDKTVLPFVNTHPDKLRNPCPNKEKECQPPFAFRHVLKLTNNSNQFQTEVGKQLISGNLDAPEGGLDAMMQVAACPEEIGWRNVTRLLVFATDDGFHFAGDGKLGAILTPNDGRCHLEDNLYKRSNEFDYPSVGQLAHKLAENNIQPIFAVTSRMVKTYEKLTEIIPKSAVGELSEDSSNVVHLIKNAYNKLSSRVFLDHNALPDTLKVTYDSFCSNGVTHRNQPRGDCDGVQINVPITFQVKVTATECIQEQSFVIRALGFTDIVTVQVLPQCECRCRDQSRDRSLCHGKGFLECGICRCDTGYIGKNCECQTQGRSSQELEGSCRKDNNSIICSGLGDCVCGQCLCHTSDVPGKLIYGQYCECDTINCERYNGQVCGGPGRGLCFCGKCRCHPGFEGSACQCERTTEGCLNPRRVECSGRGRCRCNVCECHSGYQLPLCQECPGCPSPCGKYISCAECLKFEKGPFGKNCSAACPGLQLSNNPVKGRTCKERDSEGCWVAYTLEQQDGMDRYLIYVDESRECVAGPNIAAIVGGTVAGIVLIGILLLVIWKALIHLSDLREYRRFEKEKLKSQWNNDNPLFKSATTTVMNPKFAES

B1: recombinant human ICAM3-FC (Fc fusion, UniProt P32942 30-485, looked up, not shown: a dimerising Fc or GST)
chain: QEFLLRVEPQNPVLSAGGSLFVNCSTDCPSSEKIALETSLSKELVASGMGWAAFNLSNVTGNSRILCSVYCNGSQITGSSNITVYRLPERVELAPLPPWQPVGQNFTLRCQVEDGSPRTSLTVVLLRWEEELSRQPAVEEPAEVTATVLASRDDHGAPFSCRTELDMQPQGLGLFVNTSAPRQLRTFVLPVTPPRLVAPRFLEVETSWPVDCTLDGLFPASEAQVYLALGDQMLNATVMNHGDTLTATATATARADQEGAREIVCNVTLGGERREARENLTVFSFLGPIVNLSEPTAHEGSTVTVSCMAGARVQVTLDGVPAAAPGQPAQLQLNATESDDGRSFFCSATLEVDGEFLHRNSSVQLRVLYGPKIDRATCPQHLKWKDKTRHVLQCQARGNPYPELRCLKEGSSREVPVGIPFFVNVTHNGTYQCQASSSRGKYTLVVVMDIEAGSSH
For the molecule B1, the frequency of the perforin negative population, CD56+CD8med cells was found to be 19.8% and the granzyme-A negative population, CD56+CD8high cells worked out at 3.07%.

B2: recombinant human ICAM2-FC (Fc fusion, UniProt P13598 25-223, looked up, not shown: a dimerising Fc or GST)
chain: KVFEVHVRPKKLAVEPKGSLEVNCSTTCNQPEVGGLETSLDKILLDEQAQWKHYLVSNISHDTVLQCHFTCSGKQESMNSNVSVYQPPRQVILTLQPTLVAVGKSFTIECRVPTVEPLDSLTLFLFRGNETLHYETFGKAAPAPQEATATFNSTADREDGHRNFSCLAVLDLMSRGGNIFHKHSAPKMLEIYEPVSDSQ
As for B2, the frequency of the perforin negative population, CD56+CD8med cells worked out at 21.5% and the granzyme-A negative population, CD56+CD8high cells is 58.3%.
